Paper doi:10.1101/2020.12.31.425005 (bioRxiv, 2020)

Target: the molecule itself
Assay: crystal structure

B1: Haemophilus ducreyi I51M-L72M-YhcB cytosolic region, residues 31-128 (domain or fragment)
chain: MKGNIQQQIQLKSELASAEAKMEEQKQQLERHFEQSANLLENMAEDYKKLYTHFAQNSEQLLPESNQVEFFKRLKNHANGDEDNQPRDYSDGSSGLLKS
modifications: selenomethionine-labeled (Met-51, Met-72)
- stoichiometry N: 4
